Assay results taken from US20250042991A1 (University of Texas, published 2025).

Assays:
human leptin [1] = biological target: T1, human leptin (human, UniProt P41159 22-167); assay: ELISA, human leptin coated on plate, 1:20 diluted culture supernatant
T1 construct: Bought recombinant protein coated on ELISA plates; also called Leptin protein; LEPTIN antigen
Protocol: Binding of LEPTIN by monoclonal antibodies was first screened by ELISA using supernatants collected from the B cell cultures. Human or mouse LEPTIN protein (Sino Biologicals) was coated on a 96-well high binding plate over night at 4° C. in PBS. B cell culture supernatants (5 μl medium and 95 μl of PBS) were added at for binding to LEPTIN antigen coated on the plate. Bound antibody was detected using a secondary antibody against rabbit IgG conjugated with HRP and TMB substrate.

human leptin [2] = biological target: T1, human leptin; assay: ELISA titration on coated leptin, 4 parameter fit
Protocol: ELISA titration was used to determine the binding affinity of a panel of monoclonal antibodies to LEPTIN antigen. Binding constants (KD and/or EC 50) of a panel of monoclonal antibodies were estimated using the 4 parameter curve fitting with Prism GraphPad program. For Biacore analysis, all experiments were performed at 25° C. at a flow rate of 45 μl/min. An anti-human IgG Fc antibody (from ThermoFisher, at 50 μg/ml each in acetate buffer, pH 5.0) was immobilized onto a carboxymethyl dextran sensorchip (CM5) using amine coupling procedures based on instruction from the manufacturer. Purified rabbit/human chimeric antibody to be tested was diluted at a concentration of 5 μg/ml in 0.5% P20, HBS-EP buffer and injected on FC2 to reach 500 to 1000 RU. FC1 was used as the reference cell. Specific signals correspond to the difference of signals obtained on FC2 versus FC1. The analyte (recombinant human LEPTIN, apparent molecular weight 16 kDa on SDS-PAGE gel) was injected during 90 sec at series of concentration dilutions (100, 50, 25, 12.5, 6.25, and 3.13, 1.56 nM) in 0.5% P20, HBS-EP buffer. These concentrations were prepared from stock solution in 0.5% P20, HBS-EP. The dissociation phase of the analyte was monitored over a 30 minutes period. Running buffer was also injected under the same conditions as a double reference. After each running cycle, both flow cells were regenerated by injecting 20 to 45 μl of Glycine-HCl buffer pH 1.5. Binding KD on LEPTIN was calculated by koff/kₒₙ kinetic rate for each LEPTIN monoclonal antibodies (Table 3).

T1 sequence (P41159 22-167 limits assumed): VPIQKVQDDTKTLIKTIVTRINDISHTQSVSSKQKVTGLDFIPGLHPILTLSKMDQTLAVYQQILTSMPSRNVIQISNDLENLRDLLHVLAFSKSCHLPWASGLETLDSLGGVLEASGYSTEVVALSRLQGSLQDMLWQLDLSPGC

B1: hLept-3 (antibody, V domains shown)
VH: QVQLVQSGAEVKKPGSSVKVSCKASGGTFSSYAISWVRQAPGQGLEWMGGIIPIFGTANYAQKFQGRVTITADESTSTAYMELSSLRSEDTAVYYCARSQVPSSYYYGMDVWGQGTMVTVSS
VL: QSVLTQPPSVSGAPGQRVTISCTGGNSNIGAGYHVHWYQQLPGAAPKLLIYGDTNRPSGVPDRFSGSQSGTSASLAITGLQADDEADYYCQSYDRSRGGWFFGGGTQLTVL
notes: Expressed as full human IgG in HEK293 cells; also called hLetp-3
absorbance at 450 nM (human leptin [1]): 0.19 absorbance at 450 nM | EC50 (human leptin [2]): 1 to 500 nM

B2: hLept-2 (antibody, V domains shown)
VH: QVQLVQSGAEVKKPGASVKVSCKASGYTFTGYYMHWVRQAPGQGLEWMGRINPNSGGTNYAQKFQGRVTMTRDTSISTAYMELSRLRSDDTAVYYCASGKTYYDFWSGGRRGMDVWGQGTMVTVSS
VL: DIQLTQSPSSLSASVGDRVTITCRAGQSVSRYLNWFQQKPGKAPKLLIYTSSNLQSGVPSRFSASGSGTDFTLTISSLQPEDFATYYCQQTYSTPWTFGQGTKLEIK
notes: Expressed as full human IgG in HEK293 cells
absorbance at 450 nM (human leptin [1]): 2.57 absorbance at 450 nM | EC50 (human leptin [2]): 1 to 500 nM

B3: hLept-1 (antibody, V domains shown)
VH: QVQLQQLGPGLVKPSETLSLTCNVSGGSVSRGSHYWTWIRQPPGKGLEWIGYIHTDGSTNFNPSLKSRVTMSLDRSRNQFSLTLSSVTATDTAVYYCAREPGGALNFWGQGTLVTVSS
VL: not shown
notes: From a human scFv phage library, expressed as full human IgG in HEK293 cells
absorbance at 450 nM (human leptin [1]): 0.071 absorbance at 450 nM | EC50 (human leptin [2]): 1 to 500 nM

B4: hLept-5 (antibody, V domains shown)
VH: QVKLVEWSLSVVQPGRSLRLSCAASGFTFSSYAMHWVRQAPGKGLEWVAVISYDGSNKYYADSVKGRFTISRDNSKNTLYLQMNSLRAEDTAVYYCARGREYYYYMDVWGKGTTVSVSS
VL: QSVLTQPPSVSVAPGKTARITCGGYNIARKSVHWYQQKPGQAPVLVMYNDNDRPSGIPERFSGSNSGNTATLTISRVEAGDEADYYCQVWDNSDYVFGTGTKVTVL
notes: as for B2
absorbance at 450 nM (human leptin [1]): 0.739 absorbance at 450 nM | EC50 (human leptin [2]): 1 to 500 nM

B5: hLept-6 (antibody, V domains shown)
VH: QVQLMQSGAEVKKPGASVKVSCKASGYTFTSYYMHWVRQAPGQGLEWMGIINPSGGSTSYAQKFQGRVTMTRDTSTSTVYMELSSLRSEDTAVYYCARGFGYGGKALDYWGQGTTVTVSS
VL: DIQMTQSPPTLSASVGDRVTITCRASQNINSRLAWYQQKPGRAPKLLIYKASTLESGVPSRFSGSGSGTEFTLTISSLQPDDFATYYCQQFDKYSITFGGGTKMEIK
notes: as for B2
absorbance at 450 nM (human leptin [1]): 0.663 absorbance at 450 nM | EC50 (human leptin [2]): 1 to 500 nM
